Reference: PMC8348223, “Direct Measurement of the Affinity between tBid and Bax in a Mitochondria-Like Membrane” (International Journal of Molecular Sciences, 2021)

Target: the molecule itself
Experiment: single particle fluorescence intensity (stoichiometry) analysis of confocal images; same bilayer and images as a1; event intensity normalised by the monomer brightness measured by FCS and binned into putative monomers, dimers, etc.

B1: Bax 47C labelled with HyLite488 (Bax-HyLite488) (natural protein, human, UniProt Q07812 1-192, looked up)
chain: MDGSGEQPRGGGPTSSEQIMKTGALLLQGFIQDRAGRMGGEAPELACDPVPQDASTKKLSEALKRIGDELDSNMELQRMIAAVDTDSPREVFFRVAADMFSDGNFNWGRVVALFYFASKLVLKALATKVPELIRTIMGWTLDFLRERLLGWIQDQGGWDGLLSYFGTPTWQTVTIFVAGVLTASLTIWKKMG
modifications: HyLite488 bound by maleimide chemistry to the cysteine at position 47
notes: full-length human Bax; the two endogenous cysteines (62 and 126) are replaced with alanine, and leucine 47 is changed to cysteine; Labelling efficiency 81%; also called Bax-HiLyte488
Does B1 bind?
Result: binds
